Data set [1] concerns the target TLR4-YFP stably expressed on HEK293 MD2-CD14 cells (UniProt O00206).
For data set [2], the target named is C47S mutant N-terminal 6xHis-tagged human peroxiredoxin-5 (human). As to the kind of experiment: SEC-MALS; 50 µL loaded on Superdex 200 Increase 10/300 GL (and Superdex 75 Increase, data not shown), PBS running buffer pH 7.4; Zimm fit.
Data set [3] deals with recombinant human TLR4 (R&D Systems) (human) (UniProt O00206). Kind of data set: AFM single-molecule force spectroscopy; PRDX5 grafted on the AFM tip by a PEG24 linker, TLR4 covalently attached to an alkanethiol SAM on gold (NHS/EDC); PBS, ~25 °C; retraction speeds 100 nm/s to 10 µm/s; Bell-Evans fit.
Data set [4] deals with TLR4-YFP stably expressed on HEK293 MD2-CD14 cells (UniProt O00206). Kind of data set: flow cytometry on cells; living HEK293 MD2-CD14 TLR4 cells exposed to 1 µM of the PRDX5 redox forms or increasing dsPRDX5 in DMEM, 40 min on ice; detected with anti-PRDX5 serum and Alexa Fluor 647 Plus secondary antibody; MFI of untreated cells subtracted.
Data set [5] has as its target TLR4-YFP stably expressed on HEK293 MD2-CD14 cells (UniProt O00206 24-839). As to the kind of experiment: cell-based or functional assay.
Data set [6] deals with the molecule itself. Kind of data set: SEC-MALS; 50 µL loaded on Superdex 200 Increase 10/300 GL (and Superdex 75 Increase, data not shown), PBS running buffer pH 7.4; Zimm fit. On the technique in general: In gel filtration, larger molecules generally elute earlier.

Several values for one entry are separate records, joined by “and”; a condition that tells them apart may be missing. Identical values can stand only once.

recombinant human TLR4 (R&D Systems) (human), sequence (O00206 24-631): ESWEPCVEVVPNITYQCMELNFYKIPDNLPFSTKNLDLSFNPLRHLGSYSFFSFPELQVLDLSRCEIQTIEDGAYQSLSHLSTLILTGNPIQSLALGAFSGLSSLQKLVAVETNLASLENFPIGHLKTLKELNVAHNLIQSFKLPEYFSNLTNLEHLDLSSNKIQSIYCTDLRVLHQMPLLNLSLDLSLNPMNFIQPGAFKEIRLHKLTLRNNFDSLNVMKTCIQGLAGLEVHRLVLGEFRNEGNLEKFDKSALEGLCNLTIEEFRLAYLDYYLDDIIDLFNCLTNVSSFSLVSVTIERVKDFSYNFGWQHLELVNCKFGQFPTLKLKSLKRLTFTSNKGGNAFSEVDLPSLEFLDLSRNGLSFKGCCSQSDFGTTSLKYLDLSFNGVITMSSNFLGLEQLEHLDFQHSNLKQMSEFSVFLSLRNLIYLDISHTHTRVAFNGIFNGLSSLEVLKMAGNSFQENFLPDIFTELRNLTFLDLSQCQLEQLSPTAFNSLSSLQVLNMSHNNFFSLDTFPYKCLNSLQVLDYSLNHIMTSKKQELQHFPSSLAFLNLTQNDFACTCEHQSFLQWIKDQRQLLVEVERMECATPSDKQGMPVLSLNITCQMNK
TLR4-YFP stably expressed on HEK293 MD2-CD14 cells (UniProt O00206 24-839), sequence (O00206 24-839): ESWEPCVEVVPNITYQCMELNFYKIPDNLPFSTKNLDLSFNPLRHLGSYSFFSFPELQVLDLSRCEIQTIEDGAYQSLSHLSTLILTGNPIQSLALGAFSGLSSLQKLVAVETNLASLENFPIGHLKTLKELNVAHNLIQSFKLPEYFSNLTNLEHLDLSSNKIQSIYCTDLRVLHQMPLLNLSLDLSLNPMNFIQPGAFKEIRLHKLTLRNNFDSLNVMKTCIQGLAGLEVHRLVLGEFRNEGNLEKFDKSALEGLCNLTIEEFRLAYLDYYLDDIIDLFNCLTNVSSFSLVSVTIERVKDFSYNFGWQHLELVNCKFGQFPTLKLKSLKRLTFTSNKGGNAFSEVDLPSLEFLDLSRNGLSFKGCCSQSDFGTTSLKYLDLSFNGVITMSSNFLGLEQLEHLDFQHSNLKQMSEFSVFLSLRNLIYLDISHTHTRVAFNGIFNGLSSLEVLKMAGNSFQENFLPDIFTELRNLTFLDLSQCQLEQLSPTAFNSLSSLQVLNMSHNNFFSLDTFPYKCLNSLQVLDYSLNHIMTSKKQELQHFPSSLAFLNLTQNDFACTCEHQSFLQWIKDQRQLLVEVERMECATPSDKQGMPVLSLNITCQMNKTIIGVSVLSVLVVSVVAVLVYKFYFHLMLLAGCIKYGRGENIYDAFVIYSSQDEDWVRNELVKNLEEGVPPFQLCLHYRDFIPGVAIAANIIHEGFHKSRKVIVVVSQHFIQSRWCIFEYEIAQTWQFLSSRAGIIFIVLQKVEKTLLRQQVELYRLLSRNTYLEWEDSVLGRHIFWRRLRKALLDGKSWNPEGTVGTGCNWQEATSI
TLR4-YFP stably expressed on HEK293 MD2-CD14 cells (UniProt O00206), sequence (O00206 24-839): as above

With “C47S mutant N-terminal 6xHis-tagged human peroxiredoxin-5 (enzyme)”, the IL-8 secretion from HEK293 MD2-CD14 TLR4 cells, 2 µM protein, 16 h, ELISA in data set [1] came to 893 pg/mL. Further, the stoichiometry N – broadly, the number of molecules, sites or subunits per partner or assembly – in data set [2] was 2 and 4. In data set [3], the koff (commonly the first-order rate constant of dissociation) is 1.97 s⁻¹. In addition, the fold decrease in binding propensity compared to dsPRDX5 in data set [4] came out at 3 fold.
“recombinant wild-type N-terminal 6xHis-tagged human peroxiredoxin-5, disulfide (oxidized) form (from UniProt P30044 54-214)”: in data set [3], the koff turned out to be 1.02 s⁻¹.

B1: chemically reduced and alkylated recombinant human peroxiredoxin-5 (enzyme)
chain: APIKVGDAIPAVEVFEGEPGNKVNLAELFKGKKGVLFGVPGAFTPGCSKTHLPGFVEQAEALKAKGVQVVACLSVNDAFVTGEWGRAHKAEGKVRLLADPTGAFGKETDLLLDDSLVSIFGNRRLKRFSMVVQDGIVKALNVEPDGTGLTCSLAPNIISQL
modifications: cysteine thiols alkylated with iodoacetamide (carbamidomethyl groups), more likely on the two Cys involved in the disulfide bond (C47, C151)
notes: human peroxiredoxin-5 (PRDX5), wild type, same construct as m1; Made from m1 by chemical treatment; Mainly a dimer by SEC-MALS; also called r/aPRDX5; reduced PRDX5; source: dsPRDX5 (E. coli M15, purified) treated with 10 mM DTT, then 55 mM iodoacetamide, ultra-filtered; not shown: His6, N-terminal, kept
On to B1, for which the “IL-8 secretion from HEK293 MD2-CD14 TLR4 cells, 2 µM protein, 16 h, ELISA” value (“IL-8 secretion” for short) in data set [5] was 2440 pg/mL. The “stoichiometry N” value in data set [6] was found to be 2. The koff in data set [3] was determined as 2.47 s⁻¹.

B2: recombinant wild-type N-terminal 6xHis-tagged human peroxiredoxin-5, disulfide (oxidized) form (enzyme)
chain: APIKVGDAIPAVEVFEGEPGNKVNLAELFKGKKGVLFGVPGAFTPGCSKTHLPGFVEQAEALKAKGVQVVACLSVNDAFVTGEWGRAHKAEGKVRLLADPTGAFGKETDLLLDDSLVSIFGNRRLKRFSMVVQDGIVKALNVEPDGTGLTCSLAPNIISQL
modifications: disulfide bridge between C47 and C151
notes: human peroxiredoxin-5 (PRDX5), wild type; calculated mass with reduced thiols 18,297.81 Da; Mainly a dimer by SEC-MALS, with ~30% monomers; also called dsPRDX5; PRDX5; source: E. coli M15 (pRep4), pQE-30, purified (Ni-NTA), dialyzed against PBS; not shown: His6, N-terminal, kept
With B2, the “IL-8 secretion” value in data set [5] worked out at 4610 pg/mL. In addition, in data set [6], the “stoichiometry N” value is 2.

B3: hyperoxidized recombinant human peroxiredoxin-5 (enzyme)
chain: APIKVGDAIPAVEVFEGEPGNKVNLAELFKGKKGVLFGVPGAFTPGCSKTHLPGFVEQAEALKAKGVQVVACLSVNDAFVTGEWGRAHKAEGKVRLLADPTGAFGKETDLLLDDSLVSIFGNRRLKRFSMVVQDGIVKALNVEPDGTGLTCSLAPNIISQL
modifications: Cys sulfinic (-SO2H) and/or sulfonic (-SO3H) acids; only partially hyperoxidized (~42% of species), a proportion of species keeps the disulfide bridge
notes: human peroxiredoxin-5 (PRDX5), wild type, same construct as m1; Made from m1 by chemical treatment; a mix of species; Mainly a dimer by SEC-MALS; also called s/sPRDX5; hyperoxidized PRDX5; source: dsPRDX5 (E. coli M15, purified) treated with 10 mM DTT, then 5 mM H2O2, ultra-filtered; not shown: His6, N-terminal, kept
As for B3, the “IL-8 secretion” value in data set [5] was 1450 pg/mL. Moreover, the “stoichiometry N” value in data set [6] was 2 and 4.

Values taken from paper PMC8750366, “Role of the Redox State of Human Peroxiredoxin-5 on Its TLR4-Activating DAMP Function” (Antioxidants, 2021).
